Experimental data reported in patent US8287851B2, “Use of interleukin 17E for the treatment of cancer” (Lorus Therapeutics Inc., priority 2005, dated 2012).
Values belong to the molecule of their own block, whether it stands above or below them.

What was measured:
[1] = test system: human pancreatic cancer MiaPaCa-2 xenograft; assay: Antitumour efficacy in human pancreatic cancer MiaPaCa-2 xenograft model; type: in vivo, CD-1 athymic nude mice; conditions: 0.04 mg/kg murine IL-17E i.p. every third day
Protocol: The ability of murine interleukin 17E to inhibit human pancreatic cancer growth was examined as follows. Human pancreatic cancer MiaPaCa-2 cells (10^6 cells in 100 μl PBS) were subcutaneously implanted into the right flank of CD-1 athymic nude mice. Murine IL-17E was obtained from R&D Systems, Inc., and is present in the preparation as a disulphide linked homodimer. The predominant form of IL-17E in this preparation is the form starting at Val 17 of the murine sequence provided as GenBank Accession No. NP 542767. When tumours reached a volume of 50-100 mm^3, mice were randomly separated into two groups of 8 animals and treated as follows:
Group I: […] of PBS intraperitoneally (i.p.) per mouse every day until the endpoint of the experiment; and
Group II: 0.04 mg/kg of murine IL-17E intraperitoneally (i.p.) every third day until the endpoint of the experiment.
The size of the tumours was measured by caliper measurements throughout the experiment. Tumour weight was determined from tumour tissue surgically excised from the animal on the last day of the experiment. […]
25 μg of murine or human IL-17E were reconstituted with 200 μl PBS. […] Samples were separated by electrophoresis on SDS-PAGE gels and analyzed by either Western blotting or silver staining to show a reduction in IL-17E levels in immunodepleted samples. […]

[2] = test system: IL-5; assay: Serum IL-5 in tumour-engrafted mice (ELISA); type: in vivo, CD1-nude mice
Protocol: The expression of IL-5 in serum was examined in tumour-engrafted mice treated with IL-17E. CD1-nude mice were engrafted with either C8161 human melanoma cells or MiaPaCa2 pancreatic cancer cells and treated with either PBS or murine IL-17E as described previously. Serum samples were collected individually from each mouse at the endpoint of the experiment, and IL-5 levels were determined by ELISA assay (BD OptEIA; BD Biosciences), according to the manufacturer's instructions. Immunoassay plates were coated with anti-mouse IL-5 monoclonal antibody as a capture antibody and incubated with serial dilutions of mouse sera. Plates were washed three times with wash buffer and blocked for 1 hr at room temp. Plates were incubated with biotinylated anti-mouse IL-5 monoclonal antibody and avidin-horseradish peroxidase conjugate for 1 hour, followed by seven washes. Substrate solution was added for 30 minutes, followed by stop solution, prior to measurement of absorbance (450/570 nm). Statistical analysis was performed to compare IL-5 levels. P values <0.05 were considered to be significant.

[3] = biological target: T1, IL17BR interaction with protein tyrosine kinase Lyn (Mus musculus, UniProt Q9JIP3); assay: Coimmunoprecipitation of Lyn and IL17BR in WEHI-231 cells; type: cell-based; conditions: 0.1 μg per 5×10^6 WEHI-231 cells, 5 minutes at 37° C.
T1 construct: using the B cell lymphoma cell line WEHI-231; endogenous in cells; host or cells: WEHI-231 B cell lymphoma cells
T1 sequence (Q9JIP3 18-499): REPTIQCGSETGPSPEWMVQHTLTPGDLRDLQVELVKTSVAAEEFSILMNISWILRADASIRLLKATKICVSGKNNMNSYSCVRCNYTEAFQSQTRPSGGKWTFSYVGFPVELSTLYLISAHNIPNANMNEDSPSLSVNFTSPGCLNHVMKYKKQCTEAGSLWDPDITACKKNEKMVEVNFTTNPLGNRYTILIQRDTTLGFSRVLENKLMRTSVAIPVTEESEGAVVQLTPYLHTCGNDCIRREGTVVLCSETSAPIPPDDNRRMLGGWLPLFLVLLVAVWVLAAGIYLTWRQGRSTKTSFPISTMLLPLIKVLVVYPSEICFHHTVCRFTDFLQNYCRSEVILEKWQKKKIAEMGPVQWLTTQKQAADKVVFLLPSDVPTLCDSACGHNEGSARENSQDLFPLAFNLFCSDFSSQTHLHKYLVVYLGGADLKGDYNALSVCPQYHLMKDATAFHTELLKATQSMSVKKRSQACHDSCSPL
Protocol: The effect of interleukin 17E on the induction of interaction of its receptor IL17BR with the protein tyrosine kinase Lyn was examined using the B cell lymphoma cell line WEHI-231.
A total of 5×10^6 cells per sample were incubated with 0.1 μg of human IL17E (hIL-17E) for 5 minutes at 37° C. Cells were lysed in lysis buffer for 30 minutes on ice, followed by centrifugation for 10 minutes. The tyrosine kinase Lyn was immunoprecipitated from 350 μg of protein lysate using rabbit anti-Lyn antibodies coupled to Protein A Sepharose beads. Immunoprecipitated samples containing approximately 25 μg of protein were separated by SDS-PAGE, followed by transfer to membranes for Western blotting.
For detection of phosphorylated Lyn, blots were incubated with anti-phosphotyrosine antibodies, followed by horseradish peroxidase (HRP)-conjugated anti-mouse antibodies.
For detection of IL17BR, blots were incubated with biotin-conjugated-rat anti-IL17BR antibodies, followed by HRP-conjugated streptavidin.
To assess equivalent loading of Lyn, blots were incubated with rabbit anti-Lyn antibodies, followed by HRP-conjugated-anti-rabbit antibodies.
All blots were exposed to autoradiography film and developed to detect chemiluminescence.

B1: murine IL-17E: Murine IL-17E from R&D Systems; predominant form starting at Val 17 of GenBank NP 542767 (protein)
chain: VSLRIQEGCSHLPSCCPSKEQEPPEEWLKWSSASVSPPEPLSHTHHAESCRASKDGPLNSRAISPWSYELDRDLNRVPQDLYHARCLCPHCVSLQTGSHMDPLGNSVPLYHNQTVFYRRPCHGEEGTHRRYCLERRLYRVSLACVCVRPRVMA
tumour growth (tumour volume and weight) as compared to PBS [1]: significantly inhibit tumour growth
serum levels of IL-5 as compared to PBS ([2]; mice engrafted with human melanoma C8161 cells): significantly higher
serum levels of IL-5 as compared to PBS ([2]; mice engrafted with human pancreatic cancer MiaPaCa2 cells): significantly higher

coimmunoprecipitation of Lyn and IL17BR [3]: coimmunoprecipitated
B2: human IL-17E: Recombinant human IL-17E from PeproTech; two 145 amino acid chains, predominant form starting at Tyr 33 of GenBank AAG40848 (protein, listed as Homo sapiens)
chain: YSHWPSCCPSKGQDTSEELLRWSTVPVPPLEPARPNRHPESCRASEDGPLNSRAISPWRYELDRDLNRLPQDLYHARCLCPHCVSLQTGSHMDPRGNSELLYHNQTVFYRRPCHGEKGTHKGYCLERRLYRVSLACVCVRPRVMG
